Laboratory results taken from patent publication US20130316941A1 (Boehringer Ingelheim, published 2013).

Columns and labels:
[1] = biological target: human glucagon receptor (Glucagon-R) (human, UniProt P47871 26-477); test: cell-based or functional assay
[2] = biological target: human glucagon-like peptide 1 receptor (GLP-1R) (human, UniProt P43220 24-463); test: cell-based or functional assay

Chain of human glucagon receptor (Glucagon-R) (P47871 26-477): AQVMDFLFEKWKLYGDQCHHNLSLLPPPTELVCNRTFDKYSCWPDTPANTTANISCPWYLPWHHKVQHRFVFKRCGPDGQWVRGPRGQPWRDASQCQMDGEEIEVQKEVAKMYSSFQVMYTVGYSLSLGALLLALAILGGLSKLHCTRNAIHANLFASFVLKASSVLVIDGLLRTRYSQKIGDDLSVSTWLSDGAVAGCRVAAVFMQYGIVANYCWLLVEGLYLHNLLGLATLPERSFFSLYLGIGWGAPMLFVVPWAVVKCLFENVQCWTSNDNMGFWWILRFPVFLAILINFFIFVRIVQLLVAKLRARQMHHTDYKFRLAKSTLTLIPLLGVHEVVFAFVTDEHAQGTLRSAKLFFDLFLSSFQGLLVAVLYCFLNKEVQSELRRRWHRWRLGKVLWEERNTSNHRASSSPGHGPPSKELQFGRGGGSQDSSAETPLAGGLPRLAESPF

Binder	EC50 values for cAMP generation in HEK293 cells expressing Glucagon receptor [1] [nM]	EC50 values for cAMP generation in HEK293 cells expressing GLP-1 receptor [2] [nM]
HSQGTFTSDYSKYLDERRAKDFIKWLLSA (HELM PEPTIDE1{H.S.Q.G.T.F.T.S.D.Y.S.K.Y.L.D.E.R.R.A.K.D.F.I.K.W.L.L.S.A.[am]}|PEPTIDE2{[CCCCCCCCCCCCCCCC(=O)[*:2]].[gGlu]}$PEPTIDE1,PEPTIDE2,24:R3-2:R2$$$V2.0; SMILES CCCCCCCCCCCCCCCC(=O)N[C@@H](CCC(=O)NCCCC[C@H](NC(=O)[C@@H](NC(=O)[C@H](Cc1ccccc1)NC(=O)[C@H](CC(=O)O)NC(=O)[C@H](CCCCN)NC(=O)[C@H](C)NC(=O)[C@H](CCCNC(=N)N)NC(=O)[C@H](CCCNC(=N)N)NC(=O)[C@H](CCC(=O)O)NC(=O)[C@H](CC(=O)O)NC(=O)[C@H](CC(C)C)NC(=O)[C@H](Cc1ccc(O)cc1)NC(=O)[C@H](CCCCN)NC(=O)[C@H](CO)NC(=O)[C@H](Cc1ccc(O)cc1)NC(=O)[C@H](CC(=O)O)NC(=O)[C@H](CO)NC(=O)[C@@H](NC(=O)[C@H](Cc1ccccc1)NC(=O)[C@@H](NC(=O)CNC(=O)[C@H](CCC(N)=O)NC(=O)[C@H](CO)NC(=O)[C@@H](N)Cc1c[nH]cn1)[C@@H](C)O)[C@@H](C)O)[C@@H](C)CC)C(=O)N[C@@H](Cc1c[nH]c2ccccc12)C(=O)N[C@@H](CC(C)C)C(=O)N[C@@H](CC(C)C)C(=O)N[C@@H](CO)C(=O)N[C@@H](C)C(N)=O)C(=O)O) [H-HSQGTFTSDYSKYLDERRAKDFI-K(Hexadecanoyl-isoGlu)-WLLSA-NH2 [Compound 4]]	0.79	1.31
HSQGTFTSDYSRYLDEKRARDFIEWLLSA (HELM PEPTIDE1{H.S.Q.G.T.F.T.S.D.Y.S.R.Y.L.D.E.K.R.A.R.D.F.I.E.W.L.L.S.A.[am]}|PEPTIDE2{[CCCCCCCCCCCCCCCC(=O)[*:2]].[gGlu]}$PEPTIDE1,PEPTIDE2,17:R3-2:R2$$$V2.0; SMILES CCCCCCCCCCCCCCCC(=O)N[C@@H](CCC(=O)NCCCC[C@H](NC(=O)[C@H](CCC(=O)O)NC(=O)[C@H](CC(=O)O)NC(=O)[C@H](CC(C)C)NC(=O)[C@H](Cc1ccc(O)cc1)NC(=O)[C@H](CCCNC(=N)N)NC(=O)[C@H](CO)NC(=O)[C@H](Cc1ccc(O)cc1)NC(=O)[C@H](CC(=O)O)NC(=O)[C@H](CO)NC(=O)[C@@H](NC(=O)[C@H](Cc1ccccc1)NC(=O)[C@@H](NC(=O)CNC(=O)[C@H](CCC(N)=O)NC(=O)[C@H](CO)NC(=O)[C@@H](N)Cc1c[nH]cn1)[C@@H](C)O)[C@@H](C)O)C(=O)N[C@@H](CCCNC(=N)N)C(=O)N[C@@H](C)C(=O)N[C@@H](CCCNC(=N)N)C(=O)N[C@@H](CC(=O)O)C(=O)N[C@@H](Cc1ccccc1)C(=O)N[C@H](C(=O)N[C@@H](CCC(=O)O)C(=O)N[C@@H](Cc1c[nH]c2ccccc12)C(=O)N[C@@H](CC(C)C)C(=O)N[C@@H](CC(C)C)C(=O)N[C@@H](CO)C(=O)N[C@@H](C)C(N)=O)[C@@H](C)CC)C(=O)O) [H-HSQGTFTSDYSRYLDE-K(Hexadecanoyl-isoGlu)-RARDFIEWLLSA-NH2 [Compound 7]]	0.06	0.06
